Patent US8088892B2, “Inhibitors of proteins from the Rho-GEF family” (Centre National de la Recherche Scientifique (C.N.R.S.), priority 2002, dated 2012)

Assays:
control GEF (GEF720) = molecular target: T1, control GEF (GEF720) (Homo sapiens, UniProt O94827); assay: Yeast Exchange Assay (YEA), RhoA activation; assay type: cell-based; settings: yeast strain TAT7, reporter gene
T1 construct: expressed in transfected cells; host or cells: yeast strain TAT7
T1 sequence (O94827 1-1006): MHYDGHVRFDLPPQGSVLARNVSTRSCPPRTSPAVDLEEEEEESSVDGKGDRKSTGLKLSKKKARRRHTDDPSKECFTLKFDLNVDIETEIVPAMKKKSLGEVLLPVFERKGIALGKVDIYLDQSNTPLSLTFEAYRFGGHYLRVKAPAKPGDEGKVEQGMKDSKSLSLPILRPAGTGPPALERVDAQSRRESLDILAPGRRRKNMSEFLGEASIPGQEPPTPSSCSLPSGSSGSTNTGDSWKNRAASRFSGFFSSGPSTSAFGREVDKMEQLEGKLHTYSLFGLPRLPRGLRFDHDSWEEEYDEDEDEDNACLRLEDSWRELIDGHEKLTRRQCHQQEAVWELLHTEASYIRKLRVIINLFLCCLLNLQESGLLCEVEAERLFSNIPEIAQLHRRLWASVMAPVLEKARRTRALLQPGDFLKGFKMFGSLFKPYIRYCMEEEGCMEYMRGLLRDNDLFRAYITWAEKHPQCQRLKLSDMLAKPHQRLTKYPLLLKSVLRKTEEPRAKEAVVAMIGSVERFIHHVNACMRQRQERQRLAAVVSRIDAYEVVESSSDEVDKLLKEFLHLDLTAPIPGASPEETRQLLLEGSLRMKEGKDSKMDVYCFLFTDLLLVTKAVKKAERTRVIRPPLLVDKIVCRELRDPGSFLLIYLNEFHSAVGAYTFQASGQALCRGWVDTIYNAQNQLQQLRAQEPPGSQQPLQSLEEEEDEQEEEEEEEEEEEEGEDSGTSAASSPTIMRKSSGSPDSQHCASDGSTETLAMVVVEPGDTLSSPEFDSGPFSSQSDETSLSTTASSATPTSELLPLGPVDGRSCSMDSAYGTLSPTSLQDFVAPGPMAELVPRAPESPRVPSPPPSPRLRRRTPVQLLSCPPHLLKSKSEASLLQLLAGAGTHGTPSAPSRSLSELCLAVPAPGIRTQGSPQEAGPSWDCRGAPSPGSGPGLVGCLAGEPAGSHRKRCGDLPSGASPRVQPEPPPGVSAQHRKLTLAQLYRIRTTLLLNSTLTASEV
From the text: The wild type GTPase is fused to the LexA DNA binding domain (Matchmaker GAL4 two-hybrid, Clontech Laboratories, Inc., USA) and the effector to the […] (Matchmaker GAL4 two-hybrid, Clontech, Inc., USA). Under these conditions, no binding occurs in the TAT7 strain (De Toledo et al., 2000). Upon addition of a third plasmid expressing the GEF, the GTPase gets activated and binds to its effector, thus leading to the transactivation of the reporter gene LacZ.
TrioGEFD2, a control GEF (GEF720) or an empty vector (−GEF: corresponds to a vector without GEF) were introduced into the YEA system and analysed for their ability to transactivate the reporter gene in absence (left panel) or in the presence (right panel) of TRIPα.
In order to better characterise the effect of TRIAPα on the Trio full length RhoGEF activity, the yeast exchange assay (YEA) was used, which is a quick and quantitative test derived from the classical two-hybrid system allowing to measure Rho-GEF activity and specificity (De Toledo et al., 2000). This functional assay is based on the fact that the GTPase binds to its effector only if it is activated by a RhoGEF. Briefly, yeasts are transformed with the GTPase fused to the LexA binding domain (LexA), and its effector to the GAL-4 Activating Domain (GAD), and with the adequate Rho-GEF partner in the yeast strain TAT7 (FIG. 7). […]

Vav = assay: Binding specificity of aptamers in yeast; set-up: key: +++^1 and +^1 represent respectively a full and a partial (see FIG. 1) binding capacity; +++^1 and +^1 represent respectively a full and a partial (see FIG. 1) binding capacity; −−^1 represents a lack of binding; settings: RhoGEF Vav
From the text: Trx represents the thioredoxin protein with no inserted peptide.
In order to identify specific inhibitors of TrioGEFD2, a recently developed strategy was used, this strategy being derived from the yeast two hybrid system, where the cDNA library of preys has been replaced by a combinatorial library of short peptides (20 amino acids) in fusion with the bacterial protein thioredoxin A (Colas et al., 1996). This strategy has been successfully used to isolate specific inhibitors of the cyclin-dependent kinases (Cdks), the cell cycle transcription factor E2F, or the viral HPV16 E6 oncoprotein and HBEV core protein (Colas et al., 1996; Butz et al., 2001; Fabrizzio et al., 1999; Geyer et al., 2000). The TrioGEFD2 bait was constructed as follows: plasmid pMTHATrio1848-2298 (Bellanger et al., 1998) was digested with EcoRI/XhoI and the insert cloned in pEG202EcoRI/XhoI to generate the bait pEG202TroGEFD2. Yeast strain EGY048 (Colas et al., 1996) was transformed with pEG202TrioGEFD2 and subsequently with the library of Thioredoxin constrained aptamers according to standard procedures (Ito et al., 1983). After transformation, cells were allowed to recover for 4 hours in galactose containing medium before plating on selective galactose medium. Of the 2×10^6 screened colonies, those growing in the selective medium were recovered and retested for interaction. […] Binding specificity was investigated by screening for interaction with the following baits: TrioDH2 (a.a. 1848-2096), TrioPH2 (a.a. 2107-2223), TrioGEFD1 (a.a. 1232-1629), Dbl (a.a. 498-826), Vav (ala. 172-598) (Zhang et al, 1994), GEFD2 domain of Kalirin (a.a. 1640-1980)(Penzes et al., 2001), p115RhoGEF (a.a. 391-870)(Wells et al, 2002) and PDZRhoGEF (a.a. 964-1362) (Fukuhara et al., 1999). None of these aptamers interacted with other RhoGEF members such as Dbl, Vav, and the RhoA-specific GEFs p115RhoGEF and PDZRhoGEF.

AREGADGAICGYNLATLVMLGPSERVFCPLCEPCSSDIYELM [TRIPα, 42-amino acid peptide corresponding to the variable region of TRIAPα]
Effect on control GEF (GEF720) in the YEA system (control GEF (GEF720)): the control GEF is unaffected

B1: TRIAPα: aptamer of 154 amino acids: variable region of 42 amino acids inserted into the thioredoxin protein; tested as GST fusion (protein)
chain: MSDKIIHLTDDSFDTDVLKADGAILVDFWAEWCGPAREGADGAICGYNLATLVMLGPSERVFCPLCEPCSSDIYELMGPCKMIAPILDEIADEYQGKLTVAKLNIDQNPGTAPKYGIRGIPTLLLFKNGEVASATKVGALSKGQLKEFLDANLA
Binding in yeast (Vav): −−^1
